± gives the uncertainty stated by the source.

This data set is described as follows: protein stability index of a GFP-peptide fusion (yeast GPS) (PSI 1-4); higher = more stable; sorted into four equal gates, so the index is relative within each strain. In outline: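 The protein stability index of a peptide was calculated by multiplying its read frequency in each gate by that gate's number and adding the products. The peptides were tiled 17-residue stretches of yeast proteins, fused downstream of GFP on a Cherry-expressing plasmid and carried in yeast as a pooled library. Mid-log cultures in leucine-free medium were sorted into four equal gates by GFP/Cherry ratio, and each gate's plasmids were PCR-amplified and Illumina-sequenced.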

RVKAMEVDEKPTETYSD [RPT5]: the protein stability index reads like this: (doa10∆) 3.46 ± 0.1; (pdr5∆) 3.32 ± 0.075; (san1∆) 3.1 ± 0.074; (ubr1∆) 3.12 ± 0.077.
The corresponding values for RVNGSEFVHKYLGEGPR [RPT3] are 2.45 ± 0.057, 2.88 ± 0.063, 2.79 ± 0.056 and 3 ± 0.061.
The corresponding values for RVPIRSEYKVAFPHLYN [PRP8] are 2.54 ± 0.069, 2.27 ± 0.062, 2.34 ± 0.083 and 2.08 ± 0.041.
The corresponding values for RVQVGDIVTVGQCRPIS [RPS11A] are 3.14 ± 0.16, 3.26 ± 0.082, 3.07 ± 0.067 and 3.23 ± 0.074.
As to RVVRPKSLDAETEAEED [RPO21], the protein stability index came out at 2.25 ± 0.19 (doa10∆), 1.21 ± 0.13 (pdr5∆), 1.21 ± 0.19 (san1∆) and 1.31 ± 0.29 (ubr1∆).
The corresponding values for RVVYLKHLEDNTLLVTG [RPL6B] are 1.89 ± 0.29, 1.12 ± 0.095, 1.15 ± 0.2 and 1.16 ± 0.2.
For the sequence RWEMEAFGEFSLEGCVE [FAS2], the protein stability index (doa10∆) was 3.28 ± 0.17, the protein stability index (pdr5∆) was determined as 3.36 ± 0.16, the protein stability index (san1∆) worked out at 2.98 ± 0.095 and the protein stability index (ubr1∆) was 2.83 ± 0.14.
Taken in the same sequence, the figures for RYENNDDDERVEYNLFT [BRN1] were 3.17 ± 0.1, 3.27 ± 0.087, 3.07 ± 0.064 and 3.04 ± 0.043.
Taken in the same sequence, the figures for RYISTLTLYLFQDYLTQ [IRR1] were 2.14 ± 0.2, 1.76 ± 0.08, 3.14 ± 0.24 and 3.38 ± 0.27.
Turning to RYLVGGNKIQKVLLDSK [RPS7A], the protein stability index runs as follows: (doa10∆) 1.24 ± 0.084; (pdr5∆) 2.01 ± 0.18; (san1∆) 1.51 ± 0.25; (ubr1∆) 1.7 ± 0.17.
As to RYNAKAIGSGSEGAQAE [PUP2], the protein stability index was found to be 3.24 ± 0.093 (doa10∆), 3.14 ± 0.093 (pdr5∆), 3.36 ± 0.062 (san1∆) and 2.98 ± 0.075 (ubr1∆).
The corresponding values for RYSMSEQFPFYLHDNAS [IRR1] are 3.02 ± 0.09, 3.01 ± 0.06, 2.97 ± 0.063 and 3.03 ± 0.042.
Taken in the same sequence, the figures for RYWVQKERSDGKRHIFD [CDC53] were 2.49 ± 0.2, 2.98 ± 0.26, 3.46 ± 0.13 and 2.91 ± 0.14.
As for SAAAAGNRNSSSVFLPS [BRR2], the protein stability index was found to be 3.13 ± 0.062 (doa10∆), 3.17 ± 0.063 (pdr5∆), 3.13 ± 0.046 (san1∆) and 3.15 ± 0.059 (ubr1∆).
Taken in the same sequence, the figures for SAARGLSLVYEIGGSDL [ECM29] were 2.18 ± 0.058, 1.94 ± 0.065, 3.33 ± 0.067 and 1.73 ± 0.056.
The corresponding values for SAGAVFKSSVEMGKTDK [YOR098C/NUP1] are 3.5 ± 0.095, 3.25 ± 0.1, 3.29 ± 0.058 and 3.47 ± 0.047.
Turning to SAGFETDLRLSTNGLGM [SNU114], the protein stability index was found to be 3.43 ± 0.1 (doa10∆), 3.46 ± 0.12 (pdr5∆), 2.98 ± 0.22 (san1∆) and 3.13 ± 0.22 (ubr1∆).
For SAGLDSAQQNLASSFVN [RPN1], the protein stability index was 2.96 ± 0.16 (pdr5∆), 2.79 ± 0.17 (san1∆) and 3.2 ± 0.2 (ubr1∆).
On to SAHQSPIMQTQMPLNSN [SNF2], for which the protein stability index by setting is: (doa10∆) 2.94 ± 0.11; (pdr5∆) 2.37 ± 0.091; (san1∆) 2.54 ± 0.075; (ubr1∆) 2.17 ± 0.053.
The corresponding values for SAIRKCVRVQLIKNGKK [RPS23A] are 2.91 ± 0.081, 3.02 ± 0.069, 2.45 ± 0.12 and 3.19 ± 0.095.
Taken in the same sequence, the figures for SALWSSRKGIAFGLGAI [ECM29] were 2.59 ± 0.13, 2.89 ± 0.094, 2.2 ± 0.13 and 2.55 ± 0.089.
For the sequence SAPKISSEIDRENVKSK [SIR4], the protein stability index (ubr1∆) stood at 3.35 ± 0.15.
For the sequence SARNYDKFKLNENDLKT [SMC1], the protein stability index runs as follows: (doa10∆) 2.55 ± 0.093; (pdr5∆) 2.46 ± 0.088; (san1∆) 2.35 ± 0.22; (ubr1∆) 2.53 ± 0.063.
Taken in the same sequence, the figures for SARSSVHESLVTQSNIL [SRB8] were 2.77 ± 0.078, 3.04 ± 0.076, 2.81 ± 0.061 and 2.83 ± 0.086.
Taken in the same sequence, the figures for SASLHTRSLKYGKLRNG [RRP4] were 1.58 ± 0.075, 2.15 ± 0.11, 1.08 ± 0.13 and 2.82 ± 0.16.
Taken in the same sequence, the figures for SASPHLAPNMQLNGNET [SNF2] were 3.23 ± 0.041, 2.96 ± 0.043, 3.1 ± 0.025 and 3.256 ± 0.032.

For the origin of these results see the supplement of paper PMC9732359.
